Our source for the Effect on T-cell proliferation (% Inhibition) and % inhibition of binding values is US6602660.

Experiment [1] addresses MUC-1 mucin expressed on the surface of PHA activated human T-cells (human) (UniProt P15941). Put plainly: cell-based or functional assay.
The target in experiment [2] is Anti-human-MUC-1 mAb B27.29. Nature of the experiment: flow cytometry; soluble MUC-1 mucin (10 µg) inhibits B27.29 staining of 3 day PHA activated T-cells. (In general: In flow cytometry, cells or beads pass a laser one at a time.)
In experiment [3] the target is Anti-human-MUC-1 mAb B27.29. Nature of the experiment: flow cytometry; soluble MUC-1 mucin (50 µg) inhibits B27.29 staining of 3 day PHA activated T-cells.
For experiment [4], the target named is Anti-human-MUC-1 mAb B27.29. Put plainly: flow cytometry; soluble MUC-1 mucin (1 µg) inhibits B27.29 staining of 3 day PHA activated T-cells.

In experiment [1], Anti-human-MUC-1 mAb B27.29 (antibody) showed an Effect on T-cell proliferation (% Inhibition) at 5 µg/ml of 58% and an Effect on T-cell proliferation (% Inhibition) at 25 µg/ml of 82%.

Regarding “soluble MUC-1 mucin (from UniProt P15941 24-1097)”, the % inhibition of binding in experiment [2] is 45%; in experiment [3], 65%; in experiment [4], 25%.
